Results as given in publication PMC8216288.

Columns and labels:
[1] = target: GST-pICln S193, 195, 197D (phospho-mimicking aspartate mutant) (human) (UniProt P54105); assay: SPR; Biacore T200; GST-pICln immobilised by amine coupling on CM5 chip (400 RU), SmG as analyte; multi-cycle, 20°C, 10 μl/min; 300 mM NaCl, 50 mM Tris/HCl pH 7.5, 1 mM EDTA, 1 mM EGTA; steady-state fit; n = 3
[2] = tested on: Sm core (heptameric ring SmB/D1/D2/D3/E/F/G) assembled from GFP-pICln immunoprecipitate, detected by Y12 supershift; assay: EMSA with Y12 supershift; conditions: S100 assembly: 50 ug extract, 2 ug tRNA, 5 mM ATP, 1 ul RNAsin in 20 ul PBS, 35 C, 45 min, native RNA gel, pH not stated, GFP-pICln IP with or without ATP and …

Sequence of GST-pICln S193, 195, 197D (phospho-mimicking aspartate mutant) (human) (P54105 other isoform, or with tags, fused parts or gaps mutant): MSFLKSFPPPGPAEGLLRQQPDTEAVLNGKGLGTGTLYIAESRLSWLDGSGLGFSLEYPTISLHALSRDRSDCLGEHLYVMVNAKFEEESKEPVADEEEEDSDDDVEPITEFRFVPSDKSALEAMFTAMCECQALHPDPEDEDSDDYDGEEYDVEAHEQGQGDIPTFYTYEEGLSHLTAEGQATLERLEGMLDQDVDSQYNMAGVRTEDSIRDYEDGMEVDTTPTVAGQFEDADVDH

Kd [1] | Substance | binding signal (fold vs IP alone) ([2]; +ATP + ULK2, stated as no effect) | binding signal (fold vs IP alone) ([2]; +ATP + active ULK1) | binding signal (fold vs IP alone) ([2]; +ATP) | binding signal (fold (reference)) [2]
84.7 µM | SmG purified from E. coli (SPR analyte) (from UniProt P62308 1-76) (natural protein) |  |  |  | 
 | U1 snRNA | 1.3 | 2.6 | 1.4 | 1
